# Laboratory results as given in patent publication US10465009B2, “BCMA antigen binding proteins” (Amgen Inc., priority 2012, dated 2019).
# Numbering of substitutions follows the chain as printed. “Also recorded” adds a separate entry of the source.
# T1: [6x Histidine-SUMO]-huBCMA (SEQ ID NO:350) and carboxy terminal clipped forms (Homo sapiens, UniProt Q02223)
# T1 construct: GGS-G3 linker + Avi tag (lost in the clipped species) (C); made in house
# T1 sequence (Q02223 5-54): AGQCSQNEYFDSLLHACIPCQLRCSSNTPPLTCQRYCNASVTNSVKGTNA
# B1: 29C12: second campaign anti-huBCMA mAb, Vh SEQ ID NO:220, Vl SEQ ID NO:254 (antibody, V domains shown)
# VH: EVQLLESGGALVQPGGSLRLSCAASGFTFSSYAMNWVRQAPGKGLEWVSAISVGGDTYYADSVKGRFTISRDNSKNTLYLQMNSLRAEDTAVYYCAKDQVTMVRGVWYYYGLDVWGQGTTVTVSS
# VL: DIVMIQSPLSLPVTPGEPASISCRSSQSLLHSNGNNYLDWYLQKPGQSPHLLISLGSNRTSGVPDRFSGSGSGTDFTLKISRVEAEDVGVYYCMQALQPPRRFGQGTKLEIKR
# B2: 29C12.1 ADC (conjugate)
# VH: B1 VH
# VL: B1 VL
# B3: 32B5.1 ADC (conjugate)
# VH: B1 VH with Q81H, M82V, R86S, T90S, M102L
# VL: B1 VL with D1V, M4L, V90F
# B4: 33C7.1 ADC (conjugate)
# VH: B1 VH with Q81H, M82V, R86S, T90S, M102L
# VL: B1 VL with D1V, M4L, V90F
# B5: 35D2.1 ADC (conjugate)
# VH: B1 VH with D56G, Q81H, M82V
# VL: B1 VL with D1V, M4L, V90F
# B6: 37B2.1 ADC (conjugate)
# VH: B1 VH with S31N, Q81H, M82V, R86S, T90S, M102L
# VL: B1 VL with D1V, M4L, V90F
# B7: 40D7.1 ADC (conjugate)
# VH: B1 VH
# VL: B1 VL with Y37F, F67L, V90I, Q98R
# B8: 32B5-MCC-DM1 (conjugate)
# VH: B1 VH with Q81H, M82V, R86S, T90S, M102L
# VL: B1 VL with D1V, M4L, V90F
# B9: 29C12-MCC-DM1 (conjugate)
# VH: B1 VH
# VL: B1 VL
# Tested on: various cell lines
# Assay: Cell viability control: cell lines exposed to free DM1
# Type: cell-based, human
# Conditions: FIG. 13
# Method: The ADCs were tested for the ability to target and kill BCMA-expressing myeloma cells. The CellTiter-Glo® Luminescent Cell Viability Assay is a homogeneous method to determine the number of viable cells in culture based on quantitation of the ATP present, which signals the presence of metabolically active cells. The CellTiter-Glo® Assay is applicable to cytotoxicity assays (see http://www.promega.com/products/cell-health-assays/cell-viability-assays/celltiterglo-luminescent-cell-viability-assay/ for more information). The cell viability assay was used to assess the relative killing capacity of various ADCs on various multiple myeloma cell lines and B-cell lines. The protocol provided in the Cell Titer-Glo kit (Promega G7572) was followed. In short, 5×10^3 target cells in 90 ul RPMI 1640, 10% FBS were aliquoted into clear, flat bottom, white walled 96 well plates (Costar #3903). The ADCs were diluted into a 10× stock to create 500 nM maytansine drug equivalents. Each ADC was serially diluted in 2-fold dilutions in RPMI 1640, 10% FBS starting with 500 nM stock. […] Luminescence was read on an EnVision™ Multilabel reader (PerkinElmer) or Analyst HT plate reader (LJL Biosciences). The data was analyzed and graphed using GraphPad Prism™ to determine the relative efficacy of the ADCs on various cancer cell lines. […]
row,Molecule,killing of cell lines by free drug
1,COc1cc2cc(c1Cl)N(C)C(=O)C[C@H](OC(=O)[C@H](C)N(C)C(=O)CCS)[C@]1(C)O[C@H]1[C@H](C)[C@@H]1C[C@@](O)(NC(=O)O1)[C@H](OC)/C=C/C=C(\C)C2 [DM1],killed by free DM1

# Molecular target: T1, [6x Histidine-SUMO]-huBCMA (SEQ ID NO:350) and carboxy terminal clipped forms
# Assay: Size exclusion chromatography and LC/MS of antibody complexes with Sumo-huBCMA and its clipped forms
# Type: binding
# Conditions: SEC
# Excerpt: To determine which forms of 6×His-SUMO-huBCMA were bound to the anti-huBCMA antibodies, the SEC fractions were isolated and analyzed. Carboxy-terminus fragments of the extracellular domain of human BCMA were generated as clipped forms from the rhuBCMA fusion protein (6×His::Sumo::huBCMA(aa 5-51)::GGS::G3::Avi) of SEQ ID NO:350, as shown in FIG. 45.
# A Superdex 200™ 10/30 cm SEC column (GE Healthcare Life Sciences) was used according to the manufacturer's recommendations and run in phosphate buffered saline (PBS). Incubations of antibody with excess levels of sumoBCMA were performed at room temperature for at least 30 minutes.
# A Superdex 200™ 10/30 cm SEC column (GE Healthcare Life Sciences) was used according to the manufacturer's recommended condision and run in phosphate buffered saline (PBS). Incubations of antibody with excess levels of sumoBCMA were performed at room temperature for at least 30 minutes.
# 5 ug of total proteins were reduced in 50 mM Tris/4 M guanidine/9 mM DTT, pH 8.0 at 55° C. for 15 min, and analyzed in Agilent LCTOF system using a Vydac C8 column, 2.1 mm ID×150 mm, […] particle size. […] TOF MS conditions included capillary voltage of 4000 V, drying gas flow at 10 L/min, dry gas temperature at 300° C., nebulizer gas flow at 40 L/min, and fragmentor voltage of 300 V. MS data was analyzed in Agilent MassHunter™ Qualitative Analysis program.
row,Molecule,binding to full-length and truncated forms of huBCMA
1,B1,bound full-length and truncated forms of BCMA; also recorded: bound all forms of human BCMA

# Tested on: H929 cells
# Assay: CellTiter-Glo Luminescent Cell Viability Assay, H929
# Type: cell-based, human
# Conditions: not given
# Method: The ADCs were tested for the ability to target and kill BCMA-expressing myeloma cells. The CellTiter-Glo® Luminescent Cell Viability Assay is a homogeneous method to determine the number of viable cells in culture based on quantitation of the ATP present, which signals the presence of metabolically active cells. The CellTiter-Glo® Assay is applicable to cytotoxicity assays (see http://www.promega.com/products/cell-health-assays/cell-viability-assays/celltiterglo-luminescent-cell-viability-assay/ for more information). The cell viability assay was used to assess the relative killing capacity of various ADCs on various multiple myeloma cell lines and B-cell lines. The protocol provided in the Cell Titer-Glo kit (Promega G7572) was followed. In short, 5×10^3 target cells in 90 ul RPMI 1640, 10% FBS were aliquoted into clear, flat bottom, white walled 96 well plates (Costar #3903). The ADCs were diluted into a 10× stock to create 500 nM maytansine drug equivalents. Each ADC was serially diluted in 2-fold dilutions in RPMI 1640, 10% FBS starting with 500 nM stock. 10 ul of the 10×ADC dilution series was added to the 90 ul of cells in media (triplicate wells). The highest concentration of ADC was approximately 50 nM maytansine drug equivalents, and the lowest concentration of ADC was approximately 50 pM maytansine drug equivalents. An isotype control ADC (an anti-streptavidin huIgG1 conjugated to MCC-DM1) was included, as well as a media-only control. The plates were incubated at 37° C., 5% CO2 for 96 hours. After incubation, 100 ul of the Substrate Solution (Promega G7572) was added to each well. Luminescence was read on an EnVision™ Multilabel reader (PerkinElmer) or Analyst HT plate reader (LJL Biosciences). The data was analyzed and graphed using GraphPad Prism™ to determine the relative efficacy of the ADCs on various cancer cell lines.
# The 2A1CV5-MCC-DM1, 32B5-MCC-DM1 and 29C12-MCC-DM1 ADCs were tested for the ability to target and kill BCMA-expressing myeloma cells (H929). The CellTiter-Glo® Luminescent Cell Viability Assay is a homogeneous method to determine the number of viable cells in culture based on quantitation of the ATP present, which signals the presence of metabolically active cells. The CellTiter-Glo® Assay is applicable to cytotoxicity assays (see http://www.promega.com/products/cell-health-assays/cell-viability-assays/celltiter_glo-luminescent-cell-viability-assay/ for more information). The cell viability assay was used to assess the relative killing capacity of various ADCs on various multiple myeloma cell lines and B-cell lines. The protocol provided in the Cell Titer-Glo kit (Promega G7572) was followed. In short, 5×10^3 target cells in 90 ul RPMI 1640, 10% FBS were aliquoted into clear, flat bottom, white walled 96 well plates (Costar #3903). The ADCs were diluted into a 10× stock to create 500 nM maytansine drug equivalents. Each ADC was serially diluted in 2-fold dilutions in RPMI 1640, 10% FBS starting with 500 nM stock. 10 ul of the 10×ADC dilution series was added to the 90 ul of cells in media (triplicate wells). The highest concentration of ADC was approximately 50 nM maytansine drug equivalents, and the lowest concentration of ADC was approximately 50 pM maytansine drug equivalents. An isotype control ADC (an anti-streptavidin huIgG1 conjugated to MCC-DM1) was included, as well as a media-only control. The plates were incubated at 37° C., 5% CO2 for 96 hours. After incubation, 100 ul of the Substrate Solution (Promega G7572) was added to each well. Luminescence was read on an EnVision™ Multilabel reader (PerkinElmer) or Analyst HT plate reader (LJL Biosciences). The data was analyzed and graphed using GraphPad Prism™ to determine the relative efficacy of the ADCs on various cancer cell lines.
row,Molecule,killing of huBCMA-expressing myeloma cells (H929)
1,B2,selectively killed huBCMA-expressing target cells; also recorded: showed cytotoxicity
2,B3,selectively killed huBCMA-expressing target cells; also recorded: showed cytotoxicity
3,B4,selectively killed huBCMA-expressing target cells; also recorded: showed cytotoxicity
4,B5,selectively killed huBCMA-expressing target cells; also recorded: showed cytotoxicity
5,B6,selectively killed huBCMA-expressing target cells; also recorded: showed cytotoxicity
6,B7,selectively killed huBCMA-expressing target cells; also recorded: showed cytotoxicity
7,B8,able to target and kill BCMA-expressing myeloma cells (H929)
8,B9,able to target and kill BCMA-expressing myeloma cells (H929)
